Numbering of substitutions follows the chain as printed.
Key:
cynomolgus monkey ABCC1 [1] = biological target: T1, cynomolgus monkey ABCC1 (UniProt Q864R9 1-1531); test: FACS titration on C6-cC1 cells; C6 cells
cynomolgus monkey ABCC1 [2] = biological target: T1, cynomolgus monkey ABCC1; test: FACS cell binding
[3] = biological target: T2, human ATP Binding Cassette Subfamily C Member 1 (ABCC1) (UniProt P33527 1-1531); test: FACS cell binding
cynomolgus monkey ABCC1 [4] = biological target: T1, cynomolgus monkey ABCC1; test: FACS titration on C6 cells
[5] = biological target: T2, human ATP Binding Cassette Subfamily C …; test: FACS titration on C6 cells
cynomolgus monkey ABCC1 [6] = biological target: T1, cynomolgus monkey ABCC1; test: FACS titration on C6-cC1 cells
[7] = biological target: T2, human ATP Binding Cassette Subfamily C …; test: FACS titration on C6-hC1 cells
[8] = biological target: T2, human ATP Binding Cassette Subfamily C …; test: FACS titration on H69AR cells
cynomolgus monkey ABCC1 [9] = biological target: T1, cynomolgus monkey ABCC1; test: FACS titration on C6 cells; C6 cells
cynomolgus monkey ABCC1 [10] = biological target: T1, cynomolgus monkey ABCC1; test: FACS cell binding; remark: listed apart in the source
[11] = biological target: T2, human ATP Binding Cassette Subfamily C …; test: FACS cell binding; remark: listed apart in the source
[12] = biological target: T2, human ATP Binding Cassette Subfamily C …; test: FACS titration on C6 cells; remark: listed apart in the source
[13] = biological target: T2, human ATP Binding Cassette Subfamily C …; test: FACS titration on C6-hC1 cells; remark: listed apart in the source
cynomolgus monkey ABCC1 [14] = biological target: T1, cynomolgus monkey ABCC1; test: FACS titration on C6-cC1 cells; remark: listed apart in the source

T1 sequence (Q864R9 whole entry): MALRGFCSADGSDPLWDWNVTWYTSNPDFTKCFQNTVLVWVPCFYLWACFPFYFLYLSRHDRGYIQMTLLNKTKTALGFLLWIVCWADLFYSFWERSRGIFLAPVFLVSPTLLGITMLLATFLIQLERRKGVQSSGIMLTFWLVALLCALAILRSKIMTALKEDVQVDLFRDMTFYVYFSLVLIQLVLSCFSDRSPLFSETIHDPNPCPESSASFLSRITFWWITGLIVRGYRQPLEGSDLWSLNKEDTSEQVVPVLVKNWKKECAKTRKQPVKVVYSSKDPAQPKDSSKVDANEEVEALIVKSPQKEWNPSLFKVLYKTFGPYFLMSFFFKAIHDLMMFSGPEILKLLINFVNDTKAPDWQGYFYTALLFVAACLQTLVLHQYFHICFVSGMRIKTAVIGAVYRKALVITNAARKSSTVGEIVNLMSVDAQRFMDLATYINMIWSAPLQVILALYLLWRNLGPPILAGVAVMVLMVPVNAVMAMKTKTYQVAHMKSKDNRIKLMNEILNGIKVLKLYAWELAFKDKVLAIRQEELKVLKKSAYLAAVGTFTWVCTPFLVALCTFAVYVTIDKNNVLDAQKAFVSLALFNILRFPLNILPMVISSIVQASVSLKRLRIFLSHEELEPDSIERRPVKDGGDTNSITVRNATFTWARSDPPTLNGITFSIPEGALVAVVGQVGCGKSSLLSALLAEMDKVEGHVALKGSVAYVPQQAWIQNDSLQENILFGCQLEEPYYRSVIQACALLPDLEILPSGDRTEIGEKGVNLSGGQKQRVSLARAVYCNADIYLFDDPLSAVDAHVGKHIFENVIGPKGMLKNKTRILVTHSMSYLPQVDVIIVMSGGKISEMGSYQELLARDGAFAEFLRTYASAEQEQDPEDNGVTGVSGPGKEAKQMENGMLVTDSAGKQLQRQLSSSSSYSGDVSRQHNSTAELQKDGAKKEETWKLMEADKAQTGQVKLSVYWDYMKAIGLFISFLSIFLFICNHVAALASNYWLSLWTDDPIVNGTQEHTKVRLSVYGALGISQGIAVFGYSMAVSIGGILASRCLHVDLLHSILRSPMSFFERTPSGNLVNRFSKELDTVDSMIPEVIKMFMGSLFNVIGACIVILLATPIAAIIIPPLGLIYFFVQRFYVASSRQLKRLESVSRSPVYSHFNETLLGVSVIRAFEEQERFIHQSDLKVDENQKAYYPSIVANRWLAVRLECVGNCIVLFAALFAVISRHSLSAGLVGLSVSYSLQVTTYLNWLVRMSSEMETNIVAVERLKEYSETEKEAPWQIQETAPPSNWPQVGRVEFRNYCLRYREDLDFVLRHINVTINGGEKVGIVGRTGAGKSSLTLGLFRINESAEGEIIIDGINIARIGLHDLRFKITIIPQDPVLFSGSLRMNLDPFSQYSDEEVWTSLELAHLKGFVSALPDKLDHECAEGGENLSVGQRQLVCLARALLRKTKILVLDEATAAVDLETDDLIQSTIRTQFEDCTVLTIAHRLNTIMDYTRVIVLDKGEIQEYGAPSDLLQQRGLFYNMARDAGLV

B1: C1.831.hu11 (antibody, V domains shown)
VH: EVQLQESGPGLVKPSETLSLTCTVSGFSLTSNGVSWVRQPPGKGLEWIAAISSGGNIYYNSVLKSRLTISRDTSKNQVSLKLSSVTAADTAVYYCTRERGWNYPFITNGYYFDYWGQGTLVTVSS
VL: DIQLTQSPSSLSASVGDRVTITCKAGQNINNYLAWYQQKPGKAPKLLIYNANSLQTGIPSRFSGSGSGTDYTLTISSLQPEDFATYYCQQYNSWYTFGQGTKLEIK
- Kd (cynomolgus monkey ABCC1 [1]): 11 nM
- Kd (cynomolgus monkey ABCC1 [2]): 27 nM
- Kd [3]: 21 nM

B2: C1.835 (antibody, V domains shown)
VH: EVQLLESGPGLVQPSQTLSLTCTVSGFSLTNNGVSWVRQPPGKGLEWVAAMSSGGNIYYNSAFKSRLSISRHTSKSQVLLKMNSLQTEDTAMYFCARHRGYYGYNWGYFDYWGQGVMVTVSS
VL: NIQLTQSPSLLSASVGDRVTLSCKGSQNIYNYLAWYQQKLGEAPKLLIYKTNSLQTDIPSRFSGSGSGTDYTLTISSLHSEDLATYYCCQYNNGYTFGAGTKLELK
- Kd (cynomolgus monkey ABCC1 [4]): 575 nM
- Kd [5]: 144 nM

B3: C1.863 (antibody, V domains shown)
VH: B2 VH with L4R, L5K, V48I, M51I, N56S, H72I
VL: B2 VL with L4M, N52S, T56A, D57G, G68D, L105I
- Kd (cynomolgus monkey ABCC1 [6]): 27.3 nM
- Kd [7]: 11.7 nM

B4: C1.787a (antibody, V domains shown)
VH: B2 VH with L5T, N31S, V48I, M51I, N56S, I57T, K81N, G103W, Y104S
VL: B2 VL with Y30N, D57G, I75L, N93D
- Kd (cynomolgus monkey ABCC1 [6]): 27.6 nM
- Kd [8]: 4.3 nM
- Kd [7]: 7.8 nM

B5: C1.827 (antibody, V domains shown)
VH: B2 VH with L5V, V48I, M51I, S53N, Y59H, F63L, H72N, S74A, V116A, M117S
VL: B2 VL with L4V, D57G
- Kd (cynomolgus monkey ABCC1 [4]): 67.3 nM
- Kd [5]: 134 nM

B6: C1.844.hu21 (antibody, V domains shown)
VH: EVQLVESGGGLIQPGGSLRLSCAVSGFSLTSNGVIWVRQPPGKGLEWIAAISSGGNIYYNSGLKSRLTISRDTSKNTVYLQMNSLRAEDTAVYYCTRARGTTTAYVMDAWGQGTLVTVSS
VL: DIVMTQSPDSLAVSLGERATINCKSSQSLLYSVNQKNYLAWYQQKPGQSPKLLIYWASTRQSGVPDRFSGSGSGTDFTLTISSLQAEDVAVYYCQQYYDTLMKMFGAGTKLELK
- Kd (cynomolgus monkey ABCC1 [1]): 11 nM
- Kd (cynomolgus monkey ABCC1 [2]): 83 nM
- Kd [3]: 103 nM

B7: C1.861.hu21 (antibody, V domains shown)
VH: B6 VH with I35T, G62A, L63V, Y94F, L115T
VL: DVQLTQSPSSLSASVGDRVTITCKSSQSLLYSGNQKNYLAWYQQKPGKSPKLLIYWASTRQSGVPSRFSGSGSGTDFTLTISSLQPEDVATYYCQQYYDVLMNMFGGGTKLEIK
- Kd (cynomolgus monkey ABCC1 [1]): 11 nM
- Kd (cynomolgus monkey ABCC1 [2]): 37 nM
- Kd [3]: 38 nM

B8: C1.861 (antibody, V domains shown)
VH: EVQLKESGPGLVQPSQTLSLTCTVSGFSLTSNGVTWVRQPPGKGLEWIAAISSGGNIYYNSAVKSRLSISRDTSKSQVFLKMNSLQTEDTAIYFCTRARGTTTAYVMDAWGQGASVTVSS
VL: DVVLTQSPSSLAVSAGETVTINCKSSQSLLYSGNQKNYLAWYQQKPGQSPKLLIYWASTRQSGVPDRFIGSGSGTDFTLTISSVQAEDLAIYYCQQYYDVLMNMFGAGTKLEIK
- Kd (cynomolgus monkey ABCC1 [6]): 28 nM
- Kd (cynomolgus monkey ABCC1 [9]): 60.1 nM
- Kd [7]: 14.7 nM

B9: C1.851.hu15 (antibody, V domains shown)
VH: EVQLQESGPGLVKPSETLSLTCTVSGFSLTNNGVSWIRQPPGKGLEWIAAISSGGNIYYNSAFKSRLTISRDTSKNQVSLKLSSVTAADTAVYYCARHRGYYGYNWGYFDYWGQGTLVTVSS
VL: DVVMTQAPSSLSASLGERISLTCRASQDIYGSLNWFQQKPDGTIKLLIYGTSSLDSGVPKRFSGSRSGSDYSLTISSLESEDFADYYCLQYASSPYTFGGGTKLEIK
- Kd (cynomolgus monkey ABCC1 [10]): 210 nM
- Kd [11]: 119 nM

B10: C1.851.hu12 (antibody, V domains shown)
VH: B9 VH
VL: B1 VL with A25G, G26S, N50K, A51T, Q89Y, S93N, W94G
- Kd (cynomolgus monkey ABCC1 [10]): 181 nM
- Kd [11]: 153 nM

B11: C1.851.hu14 (antibody, V domains shown)
VH: B9 VH
VL: DVVMTQTPLSLPVSLGDQASISCRSSQSIVHSNGNTYLEWYLQKPGQSPKLLIYKVSNRFSGVPDRFSGSGTGTDFTLKISRVEAEDLGVYYCFQGSHVPRTFGGGTKLEIK
- Kd (cynomolgus monkey ABCC1 [10]): 2030 nM
- Kd [11]: 148 nM

B12: C1.505 (antibody, V domains shown)
VH: EVQLTESGPGLVQPSQTLSLTCTVSGFSLTSNGVSWVRLPPGKGLEWIAAISSGGNIYYNSALKSRLSISRDTSKSQVFLKMNSLQTEDTAIYFCTRERGWNYPGITNGYYFDYWGQGASVTVSS
VL: DIVLTQSPSLLSASVGDRVILSCKAGQKINNYLAWYQQKLGEAPKLLIYNANSLQTGIPSRFSGSGSGTDYTLTISSLQPEDVATYFCQQYNSWYTFGAGTKLEIK
- Kd [8]: 7.1 nM
- Kd [12]: 81.2 nM
- Kd [5]: 35.2 nM

B13: C1.831 (antibody, V domains shown)
VH: B12 VH with L39Q, A62V, N83S, L85V, G105F, A119V, S120M
VL: B12 VL with D1E, V3M, I20T, K28N
- Kd (cynomolgus monkey ABCC1 [4]): 8.7 nM
- Kd [5]: 11.4 nM

B14: C1.773 (antibody, V domains shown)
VH: EIQLAQSGPELVKPGASVKMSCKASGYSFIGYFMNWVKQSHGKSLEWIGRINPYNGDTFYNQKFKGKATLTVDKSSSTAHMELRSLTSEDSALYYCTRSGWGYDVYSFDYWGQGTLVTVSS
VL: DIQMTQTPSSLSASLGDRVTISCRASQDISNYLNWYQQKPDGTVKLLIYYTSRLHSGVPSRFSGSGSGTDYSLTISNLEQEDIATYFCQQGNTLPWTFGGGTKLEIK
- Kd (cynomolgus monkey ABCC1 [6]): 4.6 nM
- Kd (cynomolgus monkey ABCC1 [9]): 19.1 nM
- Kd [8]: 2.5 nM
- Kd [12]: 6.5 nM
- Kd (cynomolgus monkey ABCC1 [1]): 4 nM
- Kd [13]: 12.7 nM
- Kd [7]: 3.7 nM
- Kd (cynomolgus monkey ABCC1 [14]): 5.9 nM
- Kd (cynomolgus monkey ABCC1 [4]): 2.7 nM
- Kd [5]: 1.9 nM

Source: patent US20230272117A1 (published 2023)
